This is an account of results in publication PMC10349056, “The combined action of the intracellular regions regulates FGFR2 kinase activity” (Communications Biology, 2023).

Where no end group is shown, it is not given here.

The target in test [1] is FGFR2 juxtamembrane region (407-462), labelled with Atto 488 (UniProt P21802). Description: MST; JM labelled with Atto 488, serial dilutions of KD titrated, 25 °C; 20 mM HEPES, 150 mM NaCl, 1 mM TCEP, 0.01% Tween 20, pH 7.5; the text calls the constant of KD^pY1 apparent (Kd,app).
In test [2] the target is FGFR2 C-terminal tail of the C1 isoform, untagged (the last 58 residues of FGFR2) (UniProt P21802). Description: SPR; untagged CT immobilised on a CM4 chip by amine coupling (about 200 RU); JM-KD proteins of different phosphorylation level injected at 30 µl/min, then buffer wash; steady-state fitting. (In general: SPR reads the build-up and loss of mass on a sensor chip optically.)

The target in test [3] is FGFR2^C2 tagged with GFP or RFP. Description: FRET or BRET; FLIM of GFP- and RFP-tagged FGFR2 co-expressed in serum-starved HEK293T cells, fixed.
The target in test [4] is FGFR2^C3 tagged with GFP or RFP. Described as above.
In test [5] the target is CT^C1 (C-terminal tail of FGFR2IIIb C1 isoform, GST cleaved) (UniProt P21802). Description: MST; CT^C1 labeled with Atto488, titrated with unlabeled JM-KD^pY1 or KD^pY1, 25 °C.
Test [6] addresses KD^pY1 (mono-phosphorylated FGFR2IIIb kinase domain) (UniProt P21802). Description: MST; Atto488-labeled protein titrated with the same unlabeled protein, 25 °C; apparent dimerization constant, dimer to monomers.
Test [7] concerns the target JM (juxtamembrane region of FGFR2IIIb, as used in MST and NMR). Description: MST; JM labeled with Atto 488, serial dilutions of KD titrated, 25 °C, 20 mM HEPES, 150 mM NaCl, 1 mM TCEP, 0.01% Tween 20, pH 7.5; apparent.
Test [8] deals with CT^C1 (C-terminal tail of FGFR2IIIb C1 isoform, GST cleaved) (UniProt P21802). Description: SPR; BIAcore T100, CT^C1 immobilised on CM4 chip by amine coupling to about 200 RU, analytes at 30 µl/min.
In test [9] the target is JM-KD^pY1 (mono-phosphorylated juxtamembrane region plus kinase domain) (UniProt P21802). Description: MST; Atto488-labeled protein titrated with the same unlabeled protein, 25 °C; apparent dimerization constant, dimer to monomers.
For test [10] the target is unchanged. As to the kind of experiment: SPR; apparent dimerization constant of JM-KD^pY1 (Supplementary Fig. 2c).
For test [11], the target named is T1, FGFR2 C-terminal tail of the C1 isoform, untagged, labelled with Atto 488 (UniProt P21802-3 765-822, Atto 488 dye label).
T1 construct: FGFR2 (IIIb, C1 isoform) C-terminal tail, the last 58 residues of FGFR2; numbers count on: FGFR2IIIb (C1 isoform, 822 residues); also called CT^C1; source: E. coli BL21(DE3), purified as GST fusion, GST removed with thrombin
T1 sequence (looked up): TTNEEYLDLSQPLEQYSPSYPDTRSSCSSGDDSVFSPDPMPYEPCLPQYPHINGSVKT
Description: MST; CT labelled with Atto 488 (100 nM), 2-fold serial dilutions of JM peptides, 25 °C; 20 mM HEPES, 150 mM NaCl, 1 mM TCEP, 0.01% Tween 20, pH 7.5. Particulars: both partners purified.

Test [12] addresses T2, FGFR2 kinase domain, mono-phosphorylated on Y657 (UniProt P21802-3 465-764, Y467F (worked out from the printed order of phosphorylation) | Y587F (worked …, phosphotyrosine at 657)).
T2 construct: FGFR2 (IIIb isoform) kinase domain, residues 465-764; numbers count on: FGFR2IIIb (C1 isoform, 822 residues); also called KD^pY1; source: E. coli BL21(DE3), purified (Talon, Superdex 75)
As to the kind of experiment: MST; synthetic JM or CT peptides in serial dilution against KD^pY1, 25 °C; 20 mM HEPES, 150 mM NaCl, 1 mM TCEP, 0.01% Tween 20, pH 7.5. As to conditions: both partners purified.

The target of test [13] is T2, FGFR2 kinase domain, …. The test is described as above. As to conditions: both partners purified. The source holds these as a separate data set.
Test [14] deals with T3, FGFR2 juxtamembrane region (407-462), labelled with Atto 488 (UniProt P21802-3 407-462, Atto 488 dye label).
T3 construct: FGFR2 (IIIb isoform) juxtamembrane region, residues 407-462; numbers count on: FGFR2IIIb (C1 isoform, 822 residues); also called JM; 407Juxtamembrane region462; source: synthetic peptide, bought: Genscript
T3 sequence (looked up): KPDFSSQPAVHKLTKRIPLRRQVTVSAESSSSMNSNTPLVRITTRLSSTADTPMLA
As to the kind of experiment: MST; JM labelled with Atto488 (100 nM), 2-fold serial dilutions of CT peptides, 25 °C; 20 mM HEPES, 150 mM NaCl, 1 mM TCEP, 0.01% Tween 20, pH 7.5. Particulars: both partners purified.

The target of test [15] is KD^pY1 (mono-phosphorylated FGFR2IIIb kinase domain) (UniProt P21802). Description: MST; peptide fragments of CT against KD^pY1 (Supplementary Table 4, Supplementary Fig. 3a).
Test [16] has as its target JM (juxtamembrane region of FGFR2IIIb, as used in MST and NMR). As to the kind of experiment: MST; JM labeled with Atto 488, two-fold serial dilution of CT titrated.
Test [17] concerns the target T4, FGFR2 JM-KD Y657/658F (UniProt P21802-3 414-764, Y657/658F | Y657/658F).
T4 construct: numbers count on: FGFR2IIIb (C1 isoform, 822 residues); source: E. coli BL21(DE3), purified (Talon, Superdex 75)
As to the kind of experiment: SPR; untagged CT immobilised on a CM4 chip by amine coupling (about 200 RU); JM-KD proteins of different phosphorylation level injected at 30 µl/min, then buffer wash; steady-state fitting. As to conditions: both partners purified.

The target of test [18] is T5, FGFR2 JM-KD wild type, phosphorylated (UniProt P21802-3 414-764, phosphotyrosines (phosphorylated wild type; sites not listed)).
T5 construct: numbers count on: FGFR2IIIb (C1 isoform, 822 residues); also called JM-KD^pWT; JM-KD^pYWT; source: E. coli BL21(DE3), purified (Talon, Superdex 75)
Described as above. Particulars: both partners purified.

Test [19] has as its target T6, FGFR2 JM-KD, phosphorylation state pY4 (UniProt P21802-3 414-764, Y658F (worked out from the printed order of phosphorylation) | Y734F (worked …, phosphotyrosine at 657, 587, 467 and 589)).
T6 construct: numbers count on: FGFR2IIIb (C1 isoform, 822 residues); also called JM-KD^pY4; source: E. coli BL21(DE3), purified (Talon, Superdex 75)
The description is as above. Particulars: both partners purified.

The target in test [20] is T7, FGFR2 JM-KD, phosphorylation state pY2 (UniProt P21802-3 414-764, Y467F (worked out from the printed order of phosphorylation) | Y589F (worked …, phosphotyrosine at 657 and 587)).
T7 construct: numbers count on: FGFR2IIIb (C1 isoform, 822 residues); also called JM-KD^pY2; source: E. coli BL21(DE3), purified (Talon, Superdex 75)
The description is as above. Particulars: both partners purified.

Test [21] has as its target T8, FGFR2 JM-KD, phosphorylation state pY3 (UniProt P21802-3 414-764, Y589F (worked out from the printed order of phosphorylation) | Y658F (worked …, phosphotyrosine at 657, 587 and 467)).
T8 construct: numbers count on: FGFR2IIIb (C1 isoform, 822 residues); also called JM-KD^pY3; source: E. coli BL21(DE3), purified (Talon, Superdex 75)
Described as above. As to conditions: both partners purified.

In test [22] the target is T9, FGFR2 JM-KD, phosphorylation state pY5 (UniProt P21802-3 414-764, Y734F (worked out from the printed order of phosphorylation), phosphotyrosine at 657, 587, 467, 589 and 658).
T9 construct: numbers count on: FGFR2IIIb (C1 isoform, 822 residues); also called JM-KD^pY5; source: E. coli BL21(DE3), purified (Talon, Superdex 75)
The test is described as above. Particulars: both partners purified.

T2 sequence (P21802 464-763 Y466F/Y586F/Y588F/Y657F/Y733F): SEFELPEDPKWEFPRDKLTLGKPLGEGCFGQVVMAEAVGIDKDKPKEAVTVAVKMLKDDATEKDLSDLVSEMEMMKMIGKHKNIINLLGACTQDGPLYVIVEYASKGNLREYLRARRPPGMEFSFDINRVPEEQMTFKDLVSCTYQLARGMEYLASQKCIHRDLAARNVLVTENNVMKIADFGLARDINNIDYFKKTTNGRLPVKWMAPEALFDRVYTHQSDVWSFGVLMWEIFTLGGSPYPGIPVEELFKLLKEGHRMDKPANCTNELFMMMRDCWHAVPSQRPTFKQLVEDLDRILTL
T4 sequence (P21802 other isoform, or with tags, fused parts or gaps Y657/658F | Y657/658F | Y657/658F | Y657/658F): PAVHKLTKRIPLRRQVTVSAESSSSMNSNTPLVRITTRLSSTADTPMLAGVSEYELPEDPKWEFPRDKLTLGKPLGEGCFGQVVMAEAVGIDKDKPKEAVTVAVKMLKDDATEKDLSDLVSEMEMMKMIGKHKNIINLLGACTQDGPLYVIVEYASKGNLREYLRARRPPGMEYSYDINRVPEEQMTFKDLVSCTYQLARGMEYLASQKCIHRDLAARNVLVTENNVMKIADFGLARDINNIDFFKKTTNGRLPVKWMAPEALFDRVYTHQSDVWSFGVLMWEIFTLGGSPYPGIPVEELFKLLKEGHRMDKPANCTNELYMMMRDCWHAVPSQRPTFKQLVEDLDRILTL
T5 sequence (P21802 413-763): as the sequence (P21802 other isoform, or with tags, fused parts or gaps Y657/658F | Y657/658F | Y657/658F | Y657/658F) above, with F244Y, F245Y counted along it
T7 sequence (P21802 413-763 Y466F/Y588F/Y657F/Y733F): as the sequence (P21802 other isoform, or with tags, fused parts or gaps Y657/658F | Y657/658F | Y657/658F | Y657/658F) above, with Y54F, Y176F, F244Y, Y321F counted along it
T6 sequence (P21802 413-763 Y657F/Y733F): as the sequence (P21802 other isoform, or with tags, fused parts or gaps Y657/658F | Y657/658F | Y657/658F | Y657/658F) above, with F244Y, Y321F counted along it
T9 sequence (P21802 413-763 Y733F): as the sequence (P21802 other isoform, or with tags, fused parts or gaps Y657/658F | Y657/658F | Y657/658F | Y657/658F) above, with F244Y, F245Y, Y321F counted along it
T8 sequence (P21802 413-763 Y588F/Y657F/Y733F): as the sequence (P21802 other isoform, or with tags, fused parts or gaps Y657/658F | Y657/658F | Y657/658F | Y657/658F) above, with Y176F, F244Y, Y321F counted along it

Regarding “FGFR2 kinase domain, phosphorylation state pY6 (from UniProt P21802-3 465-764) (domain or fragment)”, the Kd in test [1] stood at 20.5 µM. The molecule “FGFR2 JM-KD, phosphorylation state pY6 (from UniProt P21802-3 414-764) (domain or fragment)” gave a Kd in [2] of 4.63 µM. Consider “FGFR2^C2 tagged with GFP or RFP (receptor)”, for which the percent of molecules showing dimerization above the control threshold in test [3] amounted to 16%. Turning to “FGFR2^C3 tagged with GFP or RFP (receptor)”, the percent of molecules showing interaction in test [4] is 26%. As for “KD^pY1 (mono-phosphorylated FGFR2IIIb kinase domain) (from UniProt P21802-3 465-764) (domain or fragment)”, the Kd was 3.75 µM in test [5], 0.112 µM in test [6] and 2.51 µM in test [7]. Take “JM-KD^pY1 (mono-phosphorylated juxtamembrane region plus kinase domain) (from UniProt P21802-3 414-764) (domain or fragment)”: the Kd turned out to be 0.16 µM in [8], 0.304 µM in test [5], 3.46 µM in test [9] and 3.07 µM in [10].

B1: JM peptide 439-452 (peptide)
peptide: MNSNTPLVRITTRL
notes: FGFR2 (IIIb isoform) juxtamembrane region, residues 439-452; numbers count on: FGFR2IIIb (C1 isoform, 822 residues); source: synthetic peptide, bought: Genscript
B1: the Kd in [11] is 372 ± 30.3 µM.

B2: CT peptide 808-822 (peptide)
peptide: PCLPQYPHINGSVKT
notes: FGFR2 (IIIb, C1 isoform) C-terminal tail, residues 808-822; numbers count on: FGFR2IIIb (C1 isoform, 822 residues); also called CT^808-822; source: synthetic peptide, bought: Genscript
B2 returned a Kd in [12] of 257 ± 39.2 µM.

B3: JM peptide 449-462 (peptide)
peptide: TTRLSSTADTPMLA
notes: numbers count on: FGFR2IIIb (C1 isoform, 822 residues); source: synthetic peptide, bought: Genscript
For B3, the Kd in [11] was determined as 25.4 ± 3.26 µM.

B4: JM peptide 407-420 (peptide)
peptide: KPDFSSQPAVHKLT
notes: FGFR2 (IIIb isoform) juxtamembrane region, residues 407-420; numbers count on: FGFR2IIIb (C1 isoform, 822 residues); source: synthetic peptide, bought: Genscript
Take B4: the Kd in test [11] was found to be 200 ± 13.7 µM; in test [13] it was 105 ± 7.37 µM.

B5: CT peptide 801-815 (peptide)
peptide: PDPMPYEPCLPQYPH
notes: as for B3
Consider B5, for which the Kd was 63.6 ± 6.5 µM in test [14], 25.9 µM in [15] and 25.8 ± 5.4 µM in test [12].

B6: CT peptide 808-815 (peptide)
peptide: PCLPQYPH
notes: FGFR2 (IIIb, C1 isoform) C-terminal tail, residues 808-815; numbers count on: FGFR2IIIb (C1 isoform, 822 residues); also called CT^808-815; source: synthetic peptide, bought: Genscript
In the case of B6, the Kd in test [14] turned out to be 56.6 ± 5.5 µM; in test [12], 291 ± 21.4 µM.

B7: CT^C1 (C-terminal tail of FGFR2IIIb C1 isoform, GST cleaved) (domain or fragment)
chain: T1 sequence (looked up)
modifications: cysteine pairing not given here; also: Atto488 label (MST), place not given here, 15N-labeled (NMR)
For the molecule B7, the Kd in [16] is 20.2 µM.

B8: FGFR2 C-terminal tail of the C1 isoform, untagged (the last 58 residues of FGFR2) (domain or fragment, UniProt P21802-3 765-822, looked up)
chain: T1 sequence (looked up)
notes: FGFR2 (IIIb, C1 isoform) C-terminal tail, the last 58 residues of FGFR2; numbers count on: FGFR2IIIb (C1 isoform, 822 residues); Unlabelled form: immobilised by amine coupling in SPR; added as 'CT' in the steady-state FRET; also called CT^C1; source: E. coli BL21(DE3), purified as GST fusion, GST removed with thrombin
Consider B8, for which the Kd turned out to be 5.68 µM in test [17]; 2.31 µM in [18]; 7.87 µM in test [19]; 4.08 µM in [20]; 3.27 µM in test [21]; 1.6 µM in [22].

B9: JM peptide 429-442 (peptide)
peptide: VTVSAESSSSMNSN
notes: as for B3
With B9, the Kd in [11] turned out to be 3.23 ± 0.326 µM.

B10: CT peptide 815-822 (peptide)
peptide: HINGSVKT
notes: FGFR2 (IIIb, C1 isoform) C-terminal tail, residues 815-822; numbers count on: FGFR2IIIb (C1 isoform, 822 residues); also called CT^815-822; source: synthetic peptide, bought: Genscript
The molecule B10 came in with a Kd in test [12] of 426 ± 42.5 µM.

B11: JM peptide 414-430 (peptide)
peptide: PAVHKLTKRIPLRRQVT
notes: as for B3
For the molecule B11, the Kd in test [13] was determined as 36.8 ± 6.23 µM.

B12: CT peptide 808-819 (peptide)
peptide: PCLPQYPHINGS
notes: numbers count on: FGFR2IIIb (C1 isoform, 822 residues); also called 808PCLPQYPHINGS819; source: synthetic peptide, bought: Genscript
Molecule B12 had a Kd in [12] of 255 ± 37.9 µM.
